In data set [1] the target is T1, TRC-1 (p21SNF1/JunB heteromultimer) (Homo sapiens) (UniProt Q9NR55+P17275).
T1 sequence 1: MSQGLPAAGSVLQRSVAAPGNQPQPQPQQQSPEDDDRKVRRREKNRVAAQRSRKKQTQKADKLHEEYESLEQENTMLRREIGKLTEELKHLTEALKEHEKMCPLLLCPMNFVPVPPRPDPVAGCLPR
T1 sequence 2: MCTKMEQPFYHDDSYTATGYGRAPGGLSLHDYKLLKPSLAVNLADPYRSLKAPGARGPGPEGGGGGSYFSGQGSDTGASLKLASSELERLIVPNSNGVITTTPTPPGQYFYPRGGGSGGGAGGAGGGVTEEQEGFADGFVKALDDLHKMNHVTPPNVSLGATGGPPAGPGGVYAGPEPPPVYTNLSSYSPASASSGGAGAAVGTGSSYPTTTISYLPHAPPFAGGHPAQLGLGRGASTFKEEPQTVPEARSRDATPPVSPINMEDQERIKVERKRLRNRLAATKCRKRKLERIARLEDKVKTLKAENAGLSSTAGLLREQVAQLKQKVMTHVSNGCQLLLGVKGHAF
The data set is described as follows: competition. The conditions noted are these: vs 12.5-fold for s2.

Data set [2] has as its target T1, TRC-1 (p21SNF1/JunB heteromultimer) (Homo sapiens). The data set is described as follows: EMSA. To be noted: self-competition; abolished at 100-fold. (In general: Mobility shift assays separate free from complexed probe on a gel.)
Data set [3] concerns the target Tax-response complex-1 (TRC-1), purified from SLB-I nuclear extract (human) (UniProt P17275).

The source of these data is patent US5693759.

The substance HTLV-1 LTR 21-bp repeat site1 (s1) came in with a binding signal (fold excess for ~55% competition) in data set [1] of 100.

In the case of HTLV-1 LTR 21-bp repeat site2 (s2), the binding signal (% competition at 12.5-fold excess) in data set [2] was determined as 55.

HTLV-1 LTR 21-bp repeat site3 (s3) came in with a binding signal (fold excess for ~55% competition) in data set [1] of 50.

Consider “HTLV-1 Tax protein, expressed in bacteria as a His6 fusion at its carboxy terminus (from UniProt P03409)”, for which the binding of purified TRC-1 to site2 probe in EMSA, phosphorimage analysis in data set [3] fell in the range of 2.5 to 6.5 fold.
